Results on 1 substance are retold here after patent US6518401B2, “Tumor necrosis factor stimulated gene 6 (TSG-6) protein” (New York University, priority 1991, dated 2003).

Experiment [1] deals with TSG-6 binding protein in serum. The experiment is described as follows: TSG-6 binding to carrier protein in sera (120-kDa complex, Western blot). As to conditions: recombinant human TSG-6 incubated with human, fetal bovine, rabbit, or mouse serum, 37° C. The procedure: (§1) Analysis of TSG-6 Binding to Carrier Protein. To determine the presence of TSG-6 binding protein, samples to be analyzed were mixed with an equal volume of TSG-6-containing serum-free supernatants of TN-5 B insect cells infected with recombinant Baculovirus and incubated at 37° C. for 30-60 min. (Purified TSG-6 protein was used in some experiments, as indicated.) Thereafter, the mixtures were analyzed for the presence of the 120-kDa complex by Western blotting with purified rabbit antibody to TSG-6 as described earlier (Wisniewski et al, J. Immunol. 151:6593-6601 (1993)). For detection of inter-α-inhibitor (IαI) epitopes by Western blotting, membranes were incubated with a rabbit anti-human IαI antibody (Dako) at a 1:2000 dilution for 1 hr.
Binding of TSG-6 Protein to a Protein Present in Mammalian Sera and in Supernatants of Human HepG-2 Hepatoma Cells. […] Recombinant human TSG-6 protein produced in insect cells migrates somewhat faster than the 35-kDa TSG-6 protein from human cells (Wisniewski et al, J. Immunol. 151:6593-6601 (1993)) possibly due to s different extent of glycosylation. […] When TSG-6 containing culture upernatants were incubate at 37° C. in the presence of fetal bovine serum (lane 3), mouse serum (lane 7), or serum-free culture supernatant of human HepG-2 hepatoma cells (lane 5), an additional 120-kDa band became readily apparent. […]
For orientation: Immunoblotting shows a protein as a band on a membrane.

Experiment [2] has as its target T1, IαI purified from human serum (Homo sapiens, UniProt P02760+P19823).
T1 construct: IαI is a complex protein in which the bikunin chain is linked to HC1 and HC2; supposed to determine the cleavage site for the C-terminal propeptide; from tissue; host or cells: human serum
Description: TSG-6/IαI complex formation with purified proteins (SDS-PAGE, Western blot). Format: binding. As to the method:
Purified recombinant TSG-6 protein (lane 1) and IαI purified from human serum (lane 2) were mixed and incubated for 2 min. (lane 3), 5 min. (lane 4), 10 min. (lane 5), 15 min. (lane 6), 30 min. (lane 7), or for 60 min. (lane 8) at 37° C. or for 60 min. at 0° C. (lane 9). The reaction mixtures were then separated by SDS-PAGE and subjected to Western blot analysis with rabbit anti-TSG-6 serum.
Four micrograms of purified IαI and 3 μg of purified TSG-6 protein were incubated separately for 16 hrs. at 37° C. in the absence or presence of 30 milliunits of chondroitin sulfate ABC lyase. Thereafter, control IαI was mixed with control TSG-6 protein (lane 1), chonroitinase-pretreated IαI was mixed with control TSG-6 (lane 2), and control IαI was reaction mixtured with chondroitinase-pretreated TSG-6 protein (lane 3). The reaction mixtures were incubated for 1 hr. at 37° C. before SDS-PAGE and Western blot analysis with anti-TSG-6 antibody.
as §1
Purification of IαI from Human Serum. IαI purified from human serum, according to Salier et al, Anal Biochem. 109:273-283 (1980), with some modifications. FPLC on Q Sepharose Fast Flow was used instead of DEAE-Sephacel chromatography. Chelating Sepharose Fast Flow was used for zinc chelate chromatography. Phenyl Superose was used for Hydrophobic chromatography and Superdex 200 was used for size-exclusion chromatography instead of Sephacryl-300. The IαI recovered was essentially pure as judged by SDS-PAGE and silver staining.
Rapid Complex Formation between Recombinant TSG-6 Protein and IαI Purified from Human Serum at 37° C. The 120kDa TSG-6/IαI complex formed readily when purified TSG-6 protein and purified IαI were incubated together at 37° C. but not at 0° C. […] This IαI derivative appears to be a by product of the reaction of TSG-6 with IαI. It should be noted that the 120kDa TSG-6/IαI complex is formed by purified TSG-6 and IαI proteins in the apparent absence of other proteins.
Chondroitin Sulfate Associated with IαI Is Required for the Formation of the TSG-6/IαI Complex. […]

Experiment [3] is described as follows: Binding of TSG-6 protein to hyaluronic acid coupled to Sepharose (Western blot). The arrangement: species or system bovine. As to the method: To analyze the hyaluronic acid binding properties of the TSG-6 protein, hyaluronic acid was coupled to Sepharose (HA-Sepharose) to be used as a matrix for affinity chromatography.
To couple hyaluronic acid to Sepharose, 100 mg hyaluronic acid from bovine trachea (Sigma Chemicals) was dialyzed extensively against 0.5 M NaCl. Five ml EAH-Sepharose 4 B (Pharmacia) was washed extensively with 0.5 M NaCl and mixed with the hyaluronic acid solution. The pH was adjusted to 4.5 and 40 mg 1-(3-dimethylaminopropyl)-3-ethylcarbodiimide hydrochloride (Aldrich Chem. Co.), dissolved in 1 ml distilled water, was added dropwise under constant stirring. The pH was kept at 4.5 for 1 hr. After constantly stirring the reaction mixture overnight, 200 μl acetic acid were added for another 4 hr to block the remaining amino groups on the EAH-Sepharose. […]
To show the binding of TSG-6 protein to HA-Sepharose but not to a similarly activated and blocked control Sepharose matrix, concentrated serum-free supernatant of GSV-L5 cells was used. […] Thereafter, the supernatants were removed and analyzed by Western blotting with anti-TSG-6 antibody. […] After vigorous shaking and centrifugation the supernatants were removed, dialyzed against Tris buffered saline and analyzed by Western blotting (FIG. 15). […]

Setting [4] is: purified TSG-6 protein and purified IαI, 37° C.

T1 sequence (P02760 206-352 limits assumed): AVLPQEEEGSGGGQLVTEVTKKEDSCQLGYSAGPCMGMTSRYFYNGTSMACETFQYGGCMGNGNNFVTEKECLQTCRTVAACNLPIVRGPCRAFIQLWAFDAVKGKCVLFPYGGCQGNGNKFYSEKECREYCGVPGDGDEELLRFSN
T1 sequence (P19823 55-702 limits assumed): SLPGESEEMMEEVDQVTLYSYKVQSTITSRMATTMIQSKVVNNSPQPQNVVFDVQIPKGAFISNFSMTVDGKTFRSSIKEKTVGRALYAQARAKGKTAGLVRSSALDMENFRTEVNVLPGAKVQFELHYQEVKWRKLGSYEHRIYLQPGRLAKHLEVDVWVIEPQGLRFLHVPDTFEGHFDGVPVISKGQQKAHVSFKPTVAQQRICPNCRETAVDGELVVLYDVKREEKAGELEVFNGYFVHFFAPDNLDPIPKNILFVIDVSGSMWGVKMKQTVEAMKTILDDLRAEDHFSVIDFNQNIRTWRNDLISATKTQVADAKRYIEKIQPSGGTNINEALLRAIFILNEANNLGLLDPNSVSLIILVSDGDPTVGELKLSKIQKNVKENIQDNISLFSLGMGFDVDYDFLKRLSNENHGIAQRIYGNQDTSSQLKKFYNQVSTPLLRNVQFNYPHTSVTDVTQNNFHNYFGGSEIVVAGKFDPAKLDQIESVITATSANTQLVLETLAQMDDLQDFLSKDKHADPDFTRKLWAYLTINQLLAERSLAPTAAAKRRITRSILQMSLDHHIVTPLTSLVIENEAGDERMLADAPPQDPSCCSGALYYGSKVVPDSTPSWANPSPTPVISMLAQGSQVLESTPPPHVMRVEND
T1 sequence (P98066 18-277 partner): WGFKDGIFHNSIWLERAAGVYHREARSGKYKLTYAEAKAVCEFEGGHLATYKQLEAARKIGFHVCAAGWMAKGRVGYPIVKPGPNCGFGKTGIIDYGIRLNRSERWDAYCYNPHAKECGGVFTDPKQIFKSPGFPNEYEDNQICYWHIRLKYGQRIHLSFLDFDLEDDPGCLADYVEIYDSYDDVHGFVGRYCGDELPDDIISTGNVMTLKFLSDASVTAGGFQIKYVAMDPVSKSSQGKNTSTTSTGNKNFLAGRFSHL

Consider “TSG-6 protein: cytokine-induced protein or glycoprotein, amino acid sequence SEQ ID NO:2; from GSV-L5 cells or Baculovirus-infected insect cells”, for which, in experiment [1], the “complex formation on incubation with serum” value is on record as “readily incorporated into a stable 120 kDa complex”. For the same substance, the “ability to form the TSG-6/IαI complex after pretreatment of the protein with chondroitin sulfate ABC lyase” value in experiment [2] (preincubated 16 hrs. at 37° C. with chondroitinase, then mixed with the untreated partner protein) is given as “little effect”. The “TSG-6/IαI complex formation at 0° C.” value in experiment [2] (purified TSG-6 protein and purified IαI, 0° C., within 1 hr.) was “little or no TSG-6/IαI complex was formed”. In experiment [2] (setting [4]), the “time until TSG-6/IαI complex formation detectable” value was ≤ 2 min and the “time until complex formation reaction appeared complete” value is ≤ 10 min. Further, the “binding of TSG-6 protein to HA-Sepharose” value in experiment [3] (concentrated serum-free GSV-L5 culture supernatant, overnight at 4° C., elution with 3 M NaCl) is reported as “bound virtually all the TSG-6 protein”. Further, the “binding of TSG-6 protein to control Sepharose matrix” value in experiment [3] (control Sepharose without hyaluronic acid, same procedure) was “did not bind any detectable TSG-6 protein”.
